Reference: patent US20110263827A1 (AbbVie / Abbott, published 2011)

B1: DVD326 (bispecific antibody)
VH: EVQLVQSGGGLVKPGGSLRLSCAASGFTFSSYAMHWVRQAPGKGLEWVAVISYDGSNKYYADSVKGRFTISRDNSKNTLYLQMNSLRAEDTAVYYCARFSGWPNNYYYYGMDVWGQGTTVTVSSASTKGPQVQLQESGPGLVKPSQTLSLTCTVSGYSISSDFAWNWIRQPPGKGLEWMGYISYSGNTRYQPSLKSRITISRDTSKNQFFLKLNSVTAADTATYYCVTAGRGFPYWGQGTLVTVSS
VL: DVVMTQSPLSLPVTPGEPASISCRSSQSLLHSNGFNYVDWYLQKPGQSPHLLIYFGSYRASGVPDRFSGSGSGTDFTLKISRVEAEDVGVYYCMQALQTPPWTFGQGTKVEIRRTVAAPDIQMTQSPSSMSVSVGDRVTITCHSSQDINSNIGWLQQKPGKSFKGLIYHGTNLDDGVPSRFSGSGSGTDYTLTISSLQPEDFATYYCVQYAQFPWTFGGGTKLEIKR
notes: DVD-Ig; HC S, LC S; variable parts only
B2: DVD758 (bispecific antibody)
VH: EVQLVESGGGLVQPGGSLRLSCAASGFTISDYWIHWVRQAPGKGLEWVAGITPAGGYTYYADSVKGRFTISADTSKNTAYLQMNSLRAEDTAVYYCARFVFFLPYAMDYWGQGTLVTVSSASTKGPQVQLQESGPGLVKPSQTLSLTCTVSGYSISSDFAWNWIRQPPGKGLEWMGYISYSGNTRYQPSLKSRITISRDTSKNQFFLKLNSVTAADTATYYCVTAGRGFPYWGQGTLVTVSS
VL: DIQMTQSPSSLSASVGDRVTITCRASQDVSTAVAWYQQKPGKAPKLLIYSASFLYSGVPSRFSGSGSGTDFTLTISSLQPEDFATYYCQQSYTTPPTFGQGTKVEIKRTVAAPDIQMTQSPSSMSVSVGDRVTITCHSSQDINSNIGWLQQKPGKSFKGLIYHGTNLDDGVPSRFSGSGSGTDYTLTISSLQPEDFATYYCVQYAQFPWTFGGGTKLEIKR
notes: as for B1
B3: DVD768 (bispecific antibody)
VH: EVQLVQSGGGLVKPGGSLRLSCAASGFTFSSYAMHWVRQAPGKGLEWVAVISYDGSNKYYADSVKGRFTISRDNSKNTLYLQMNSLRAEDTAVYYCARFSGWPNNYYYYGMDVWGQGTTVTVSSASTKGPSVFPLAPQVQLQESGPGLVKPSQTLSLTCTVSGYSISSDFAWNWIRQPPGKGLEWMGYISYSGNTRYQPSLKSRITISRDTSKNQFFLKLNSVTAADTATYYCVTAGRGFPYWGQGTLVTVSS
VL: DVVMTQSPLSLPVTPGEPASISCRSSQSLLHSNGFNYVDWYLQKPGQSPHLLIYFGSYRASGVPDRFSGSGSGTDFTLKISRVEAEDVGVYYCMQALQTPPWTFGQGTKVEIRRTVAAPSVFIFPPDIQMTQSPSSMSVSVGDRVTITCHSSQDINSNIGWLQQKPGKSFKGLIYHGTNLDDGVPSRFSGSGSGTDYTLTISSLQPEDFATYYCVQYAQFPWTFGGGTKLEIKR
notes: DVD-Ig; HC L, LC L; variable parts only
B4: DVD798 (bispecific antibody)
VH: B3 VH
VL: B1 VL
notes: DVD-Ig; HC L, LC S; variable parts only
B5: DVD828 (bispecific antibody)
VH: B1 VH
VL: B3 VL
notes: DVD-Ig; HC S, LC L; variable parts only
B6: DVD338 (bispecific antibody)
VH: EVQLVESGGGLVQPGGSLRLSCAASGYTFTNYGMNWVRQAPGKGLEWVGWINTYTGEPTYAADFKRRFTFSLDTSKSTAYLQMNSLRAEDTAVYYCAKYPHYYGSSHWYFDVWGQGTLVTVSSASTKGPQVQLQESGPGLVKPSQTLSLTCTVSGYSISSDFAWNWIRQPPGKGLEWMGYISYSGNTRYQPSLKSRITISRDTSKNQFFLKLNSVTAADTATYYCVTAGRGFPYWGQGTLVTVSS
VL: DIQMTQSPSSLSASVGDRVTITCSASQDISNYLNWYQQKPGKAPKVLIYFTSSLHSGVPSRFSGSGSGTDFTLTISSLQPEDFATYYCQQYSTVPWTFGQGTKVEIKRTVAAPDIQMTQSPSSMSVSVGDRVTITCHSSQDINSNIGWLQQKPGKSFKGLIYHGTNLDDGVPSRFSGSGSGTDYTLTISSLQPEDFATYYCVQYAQFPWTFGGGTKLEIKR
notes: as for B1
B7: DVD760 (bispecific antibody)
VH: EVQLVESGGGLVQPGGSLRLSCAASGFTINASWIHWVRQAPGKGLEWVGAIYPYSGYTNYADSVKGRFTISADTSKNTAYLQMNSLRAEDTAVYYCARWGHSTSPWAMDYWGQGTLVTVSSASTKGPQVQLQESGPGLVKPSQTLSLTCTVSGYSISSDFAWNWIRQPPGKGLEWMGYISYSGNTRYQPSLKSRITISRDTSKNQFFLKLNSVTAADTATYYCVTAGRGFPYWGQGTLVTVSS
VL: DIQMTQSPSSLSASVGDRVTITCRASQVIRRSLAWYQQKPGKAPKLLIYAASNLASGVPSRFSGSGSGTDFTLTISSLQPEDFATYYCQQSNTSPLTFGQGTKVEIKRTVAAPDIQMTQSPSSMSVSVGDRVTITCHSSQDINSNIGWLQQKPGKSFKGLIYHGTNLDDGVPSRFSGSGSGTDYTLTISSLQPEDFATYYCVQYAQFPWTFGGGTKLEIKR
notes: as for B1
B8: DVD767 (bispecific antibody)
VH: QVQLQESGPGLVKPSQTLSLTCTVSGYSISSDFAWNWIRQPPGKGLEWMGYISYSGNTRYQPSLKSRITISRDTSKNQFFLKLNSVTAADTATYYCVTAGRGFPYWGQGTLVTVSSASTKGPSVFPLAPEVQLVQSGGGLVKPGGSLRLSCAASGFTFSSYAMHWVRQAPGKGLEWVAVISYDGSNKYYADSVKGRFTISRDNSKNTLYLQMNSLRAEDTAVYYCARFSGWPNNYYYYGMDVWGQGTTVTVSS
VL: DIQMTQSPSSMSVSVGDRVTITCHSSQDINSNIGWLQQKPGKSFKGLIYHGTNLDDGVPSRFSGSGSGTDYTLTISSLQPEDFATYYCVQYAQFPWTFGGGTKLEIKRTVAAPSVFIFPPDVVMTQSPLSLPVTPGEPASISCRSSQSLLHSNGFNYVDWYLQKPGQSPHLLIYFGSYRASGVPDRFSGSGSGTDFTLKISRVEAEDVGVYYCMQALQTPPWTFGQGTKVEIRR
notes: as for B3
B9: DVD827 (bispecific antibody)
VH: QVQLQESGPGLVKPSQTLSLTCTVSGYSISSDFAWNWIRQPPGKGLEWMGYISYSGNTRYQPSLKSRITISRDTSKNQFFLKLNSVTAADTATYYCVTAGRGFPYWGQGTLVTVSSASTKGPEVQLVQSGGGLVKPGGSLRLSCAASGFTFSSYAMHWVRQAPGKGLEWVAVISYDGSNKYYADSVKGRFTISRDNSKNTLYLQMNSLRAEDTAVYYCARFSGWPNNYYYYGMDVWGQGTTVTVSS
VL: B8 VL
notes: as for B5
B10: DVD797 (bispecific antibody)
VH: B8 VH
VL: DIQMTQSPSSMSVSVGDRVTITCHSSQDINSNIGWLQQKPGKSFKGLIYHGTNLDDGVPSRFSGSGSGTDYTLTISSLQPEDFATYYCVQYAQFPWTFGGGTKLEIKRTVAAPDVVMTQSPLSLPVTPGEPASISCRSSQSLLHSNGFNYVDWYLQKPGQSPHLLIYFGSYRASGVPDRFSGSGSGTDFTLKISRVEAEDVGVYYCMQALQTPPWTFGQGTKVEIRR
notes: as for B4
B11: DVD325 (bispecific antibody)
VH: B9 VH
VL: B10 VL
notes: as for B1
B12: DVD775 (bispecific antibody)
VH: QVQLQESGPGLVKPSQTLSLTCTVSGYSISSDFAWNWIRQPPGKGLEWMGYISYSGNTRYQPSLKSRITISRDTSKNQFFLKLNSVTAADTATYYCVTAGRGFPYWGQGTLVTVSSASTKGPSVFPLAPEVQLLESGGGLVQPGGSLRLSCTASGFTFSSYAMNWVRQAPGKGLEWVSAISGSGGTTFYADSVKGRFTISRDNSRTTLYLQMNSLRAEDTAVYYCAKDLGWSDSYYYYYGMDVWGQGTTVTVSS
VL: DIQMTQSPSSMSVSVGDRVTITCHSSQDINSNIGWLQQKPGKSFKGLIYHGTNLDDGVPSRFSGSGSGTDYTLTISSLQPEDFATYYCVQYAQFPWTFGGGTKLEIKRTVAAPSVFIFPPDIQMTQFPSSLSASVGDRVTITCRASQGIRNDLGWYQQKPGKAPKRLIYAASRLHRGVPSRFSGSGSGTEFTLTISSLQPEDFATYYCLQHNSYPCSFGQGTKLEIKR
notes: as for B3

Biological target: T1, EGFR (UniProt P00533 25-645, limits assumed, biotinylated)
T1 construct: ELISA antigen; construct not described
Experiment: direct bind ELISA, C-term VD;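 also: ELISA with antibody or DVD-Ig preparations applied to target antigen-coated plates for 1 h at room temperature, TMB colour development, absorbance read at 450 nm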

Q: Which EC50 does the source give for B1 here?
A: 29.9 nM

Q: With B2 as the binder, how does the EC50 read?
A: 562 nM

Q: How did the EC50 turn out when B3 was run?
A: 20.7 nM

Q: How did the EC50 turn out when B4 was run?
A: 17.9 nM

Q: Which EC50 does the source give for B5 here?
A: 19.8 nM

Q: With B6 as the binder, how does the EC50 read?
A: 206 nM

Q: For B7, which EC50 is on record?
A: 328 nM

Biological target: T2, RON (UniProt Q04912 25-571, biotinylated)
Experiment: direct bind ELISA, C-term VD;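 also: ELISA with antibody or DVD-Ig preparations applied to target antigen-coated plates for 1 h at room temperature, TMB colour development, absorbance read at 450 nm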

Q: How did the EC50 turn out when B8 was run?
A: 0.64 nM

Q: For B9, which EC50 is on record?
A: 6.57 nM

Q: How did the EC50 turn out when B10 was run?
A: 1.16 nM

Q: With B11 as the binder, how does the EC50 read?
A: 25 nM

Biological target: T3, IGF1R (UniProt P08069 31-932, limits assumed, biotinylated)
T3 construct: ELISA antigen
Experiment: direct bind ELISA, C-term VD;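 also: ELISA with antibody or DVD-Ig preparations applied to target antigen-coated plates for 1 h at room temperature, TMB colour development, absorbance read at 450 nm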

Q: B12 was tested. Which EC50 did it give?
A: 2.77 nM

Biological target: T1, EGFR
Experiment: direct bind ELISA, N-term VD;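 also: antibody or DVD-Ig preparations bound to immobilized target antigen on ELISA plates, 1 h at room temperature, TMB detection read as absorbance at 450 nm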

Q: For B12, which EC50 is on record?
A: 3.59 nM

Q: Which EC50 does the source give for B8 here?
A: 5.97 nM

Q: For B9, which EC50 is on record?
A: 6.28 nM

Q: B10 was tested. Which EC50 did it give?
A: 4.56 nM

Q: For B11, which EC50 is on record?
A: 5.96 nM

Biological target: T2, RON
Experiment: direct bind ELISA, N-term VD;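 also: antibody or DVD-Ig preparations bound to immobilized target antigen on ELISA plates, 1 h at room temperature, TMB detection read as absorbance at 450 nm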

Q: Which EC50 does the source give for B1 here?
A: 0.18 nM

Q: With B3 as the binder, how does the EC50 read?
A: 0.18 nM

Q: Which EC50 does the source give for B4 here?
A: 0.18 nM

Q: For B5, which EC50 is on record?
A: 0.2 nM

Biological target: T4, VEGF (UniProt P15692-4 27-191, limits assumed, biotinylated)
T4 construct: ELISA antigen
Experiment: direct bind ELISA, N-term VD;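 also: antibody or DVD-Ig preparations bound to immobilized target antigen on ELISA plates, 1 h at room temperature, TMB detection read as absorbance at 450 nm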

Q: With B2 as the binder, how does the EC50 read?
A: 5.37 nM

Q: How did the EC50 turn out when B6 was run?
A: 0.24 nM

Q: With B7 as the binder, how does the EC50 read?
A: 0.77 nM
